# Assay results reported in IntAct's records for PubMed 25761904.
# B1: Dual oxidase maturation factor 2 (Homo sapiens), Q1HG44 (parent)
# chain: MTLWNGVLPFYPQPRHAAGFSVPLLIVILVFLALAASFLLILPGIRGHSRWFWLVRVLLSLFIGAEIVAVHFSAEWFVGTVNTNTSYKAFSAARVTARVRLLVGLEGINITLTGTPVHQLNETIDYNEQFTWRLKENYAAEYANALEKGLPDPVLYLAEKFTPSSPCGLYHQYHLAGHYASATLWVAFCFWLLSNVLLSTPAPLYGGLALLTTGAFALFGVFALASISSVPLCPLRLGSSALTTQYGAAFWVTLATGVLCLFLGGAVVSLQYVRPSALRTLLDQSAKDCSQERGGSPLILGDPLHKQAALPDLKCITTNL
# B2: Dual oxidase 2 (Homo sapiens), Q9NRD8 (parent)
# chain: MLRARPEALMLLGALLTGSLGPSGNQDALSLPWEVQRYDGWFNNLRHHERGAVGCRLQRRVPANYADGVYQALEEPQLPNPRRLSNAATRGIAGLPSLHNRTVLGVFFGYHVLSDVVSVETPGCPAEFLNIRIPPGDPVFDPDQRGDVVLPFQRSRWDPETGRSPSNPRDLANQVTGWLDGSAIYGSSHSWSDALRSFSGGQLASGPDPAFPRDSQNPLLMWAAPDPATGQNGPRGLYAFGAERGNREPFLQALGLLWFRYHNLWAQRLARQHPDWEDEELFQHARKRVIATYQNIAVYEWLPSFLQKTLPEYTGYRPFLDPSISPEFVVASEQFFSTMVPPGVYMRNASCHFRKVLNKGFQSSQALRVCNNYWIRENPNLNSTQEVNELLLGMASQISELEDNIVVEDLRDYWPGPGKFSRTDYVASSIQRGRDMGLPSYSQALLAFGLDIPRNWSDLNPNVDPQVLEATAALYNQDLSQLELLLGGLLESHGDPGPLFSAIVLDQFVRLRDGDRYWFENTRNGLFSKKEIEDIRNTTLRDVLVAVINIDPSALQPNVFVWHKGAPCPQPKQLTTDGLPQCAPLTVLDFFEGSSPGFAITIIALCCLPLVSLLLSGVVAYFRGREHKKLQKKLKESVKKEAAKDGVPAMEWPGPKERSSPIIIQLLSDRCLQVLNRHLTVLRVVQLQPLQQVNLILSNNRGCRTLLLKIPKEYDLVLLFSSEEERGAFVQQLWDFCVRWALGLHVAEMSEKELFRKAVTKQQRERILEIFFRHLFAQVLDINQADAGTLPLDSSQKVREALTCELSRAEFAESLGLKPQDMFVESMFSLADKDGNGYLSFREFLDILVVFMKGSPEDKSRLMFTMYDLDENGFLSKDEFFTMMRSFIEISNNCLSKAQLAEVVESMFRESGFQDKEELTWEDFHFMLRDHDSELRFTQLCVKGGGGGGNGIRDIFKQNISCRVSFITRTPGERSHPQGLGPPAPEAPELGGPGLKKRFGKKAAVPTPRLYTEALQEKMQRGFLAQKLQQYKRFVENYRRHIVCVAIFSAICVGVFADRAYYYGFASPPSDIAQTTLVGIILSRGTAASVSFMFSYILLTMCRNLITFLRETFLNRYVPFDAAVDFHRWIAMAAVVLAILHSAGHAVNVYIFSVSPLSLLACIFPNVFVNDGSKLPQKFYWWFFQTVPGMTGVLLLLVLAIMYVFASHHFRRRSFRGFWLTHHLYILLYALLIIHGSYALIQLPTFHIYFLVPAIIYGGDKLVSLSRKKVEISVVKAELLPSGVTYLQFQRPQGFEYKSGQWVRIACLALGTTEYHPFTLTSAPHEDTLSLHIRAVGPWTTRLREIYSSPKGNGCAGYPKLYLDGPFGEGHQEWHKFEVSVLVGGGIGVTPFASILKDLVFKSSLGSQMLCKKIYFIWVTRTQRQFEWLADIIQEVEENDHQDLVSVHIYVTQLAEKFDLRTTMLYICERHFQKVLNRSLFTGLRSITHFGRPPFEPFFNSLQEVHPQVRKIGVFSCGPPGMTKNVEKACQLVNRQDRAHFMHHYENF
# partner: B1 chain
# Variants of: B1
# Details: with duox2_human DUOX2, Q9NRD8
row,Variant,effect of a mutation on the interaction
1,C233G,disrupting interaction strength
2,C167G,disrupting interaction strength

# Variants of: B2
# Details: with doxa2_human DUOXA2, Q1HG44
row,Variant,effect of a mutation on the interaction
1,C568G,disrupting interaction strength
2,C582G,disrupting interaction strength
3,C351G,with no effect
4,C370G,decreasing interaction strength

# Variants of: B2
# Details: with doxa2_human DUOXA2, Q1HG44
# Remark: another data set of the same source
row,Variant,effect of a mutation on the interaction
1,C1162G,disrupting interaction strength

# Variants of: B2
# Details: with doxa2_human DUOXA2, Q1HG44
# Remark: another data set of the same source
row,Variant,effect of a mutation on the interaction
1,C124G,disrupting interaction strength
